Laboratory results published in doi:10.1101/2024.07.10.601956.

Biological target: Synthetic Mtln protein (UniProt Q8NCU8)
Assay: mass photometry

- stoichiometry N: 6
Substance: Synthetic Mtln protein (from UniProt Q8NCU8 1-56) (natural protein)
